According to patent US20110039770A1 (PHARMAGAP, published 2011):
Where two headings read alike, the source gives them in different places.

T1: PKC-ι in extracts of human cell lines (human, UniProt P41743 2-596)
T1 construct: Denatured on the Western blot membrane; also called PKC-iota (cell extract)
T1 sequence (looked up): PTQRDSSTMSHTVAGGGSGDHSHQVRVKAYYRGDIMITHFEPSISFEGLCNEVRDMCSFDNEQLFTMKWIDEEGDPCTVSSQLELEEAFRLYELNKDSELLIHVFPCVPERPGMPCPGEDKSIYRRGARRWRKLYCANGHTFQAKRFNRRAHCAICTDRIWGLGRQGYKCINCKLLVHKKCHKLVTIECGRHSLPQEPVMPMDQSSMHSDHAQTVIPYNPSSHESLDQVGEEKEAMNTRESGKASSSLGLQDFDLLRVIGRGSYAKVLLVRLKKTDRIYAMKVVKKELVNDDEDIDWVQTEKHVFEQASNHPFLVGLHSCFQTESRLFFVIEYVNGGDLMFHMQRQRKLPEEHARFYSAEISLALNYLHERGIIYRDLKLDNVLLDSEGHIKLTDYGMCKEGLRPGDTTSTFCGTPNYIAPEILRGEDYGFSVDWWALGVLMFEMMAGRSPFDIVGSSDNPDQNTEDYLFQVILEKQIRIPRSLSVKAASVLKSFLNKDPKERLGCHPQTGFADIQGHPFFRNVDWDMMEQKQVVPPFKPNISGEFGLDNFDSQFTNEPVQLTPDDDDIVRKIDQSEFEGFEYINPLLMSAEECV

T2: PKC-ζ in extracts of human cell lines (human, UniProt Q05513 1-592)
T2 construct: Denatured on the Western blot membrane; also called PKC-zeta (cell extract)
T2 sequence (looked up): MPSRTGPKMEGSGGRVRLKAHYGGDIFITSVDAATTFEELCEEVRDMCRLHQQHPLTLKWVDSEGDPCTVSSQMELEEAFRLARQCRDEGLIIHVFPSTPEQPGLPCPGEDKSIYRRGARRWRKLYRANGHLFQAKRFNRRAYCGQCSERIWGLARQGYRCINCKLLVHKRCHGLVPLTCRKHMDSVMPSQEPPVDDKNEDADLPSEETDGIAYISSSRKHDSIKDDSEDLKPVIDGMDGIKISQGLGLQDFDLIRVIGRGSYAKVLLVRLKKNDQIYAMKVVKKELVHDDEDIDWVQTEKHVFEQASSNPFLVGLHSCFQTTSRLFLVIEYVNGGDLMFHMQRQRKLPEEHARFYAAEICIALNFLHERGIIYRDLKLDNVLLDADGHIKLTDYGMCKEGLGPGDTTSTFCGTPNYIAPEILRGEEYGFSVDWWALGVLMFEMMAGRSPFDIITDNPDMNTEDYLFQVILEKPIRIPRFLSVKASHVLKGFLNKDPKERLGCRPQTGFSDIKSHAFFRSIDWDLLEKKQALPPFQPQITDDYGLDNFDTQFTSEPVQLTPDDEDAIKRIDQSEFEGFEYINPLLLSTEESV

T3: PKC-ε (UniProt Q02156 1-737)
T3 sequence (looked up): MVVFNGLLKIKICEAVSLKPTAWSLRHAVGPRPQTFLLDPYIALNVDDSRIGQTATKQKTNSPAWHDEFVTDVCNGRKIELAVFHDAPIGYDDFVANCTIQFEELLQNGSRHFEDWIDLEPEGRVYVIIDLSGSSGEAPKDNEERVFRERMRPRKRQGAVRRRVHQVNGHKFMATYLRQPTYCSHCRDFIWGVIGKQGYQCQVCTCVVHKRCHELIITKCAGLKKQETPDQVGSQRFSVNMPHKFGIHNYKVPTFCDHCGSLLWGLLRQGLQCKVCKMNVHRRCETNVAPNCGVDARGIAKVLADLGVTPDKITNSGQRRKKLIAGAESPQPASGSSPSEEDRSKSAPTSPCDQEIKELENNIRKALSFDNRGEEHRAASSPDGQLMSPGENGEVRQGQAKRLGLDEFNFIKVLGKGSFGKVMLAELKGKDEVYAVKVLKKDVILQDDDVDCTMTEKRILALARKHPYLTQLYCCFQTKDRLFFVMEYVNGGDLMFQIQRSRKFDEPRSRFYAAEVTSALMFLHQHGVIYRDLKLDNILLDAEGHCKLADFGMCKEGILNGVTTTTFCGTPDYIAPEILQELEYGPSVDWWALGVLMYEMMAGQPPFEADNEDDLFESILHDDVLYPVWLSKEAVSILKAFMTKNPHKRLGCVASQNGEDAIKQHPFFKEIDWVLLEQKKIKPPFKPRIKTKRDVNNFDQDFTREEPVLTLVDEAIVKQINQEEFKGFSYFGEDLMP

T4: PKC-ε, purified isoform (UniProt Q02156 1-737)
T4 construct: also called PKC-epsilon; epsilon
T4 sequence (looked up): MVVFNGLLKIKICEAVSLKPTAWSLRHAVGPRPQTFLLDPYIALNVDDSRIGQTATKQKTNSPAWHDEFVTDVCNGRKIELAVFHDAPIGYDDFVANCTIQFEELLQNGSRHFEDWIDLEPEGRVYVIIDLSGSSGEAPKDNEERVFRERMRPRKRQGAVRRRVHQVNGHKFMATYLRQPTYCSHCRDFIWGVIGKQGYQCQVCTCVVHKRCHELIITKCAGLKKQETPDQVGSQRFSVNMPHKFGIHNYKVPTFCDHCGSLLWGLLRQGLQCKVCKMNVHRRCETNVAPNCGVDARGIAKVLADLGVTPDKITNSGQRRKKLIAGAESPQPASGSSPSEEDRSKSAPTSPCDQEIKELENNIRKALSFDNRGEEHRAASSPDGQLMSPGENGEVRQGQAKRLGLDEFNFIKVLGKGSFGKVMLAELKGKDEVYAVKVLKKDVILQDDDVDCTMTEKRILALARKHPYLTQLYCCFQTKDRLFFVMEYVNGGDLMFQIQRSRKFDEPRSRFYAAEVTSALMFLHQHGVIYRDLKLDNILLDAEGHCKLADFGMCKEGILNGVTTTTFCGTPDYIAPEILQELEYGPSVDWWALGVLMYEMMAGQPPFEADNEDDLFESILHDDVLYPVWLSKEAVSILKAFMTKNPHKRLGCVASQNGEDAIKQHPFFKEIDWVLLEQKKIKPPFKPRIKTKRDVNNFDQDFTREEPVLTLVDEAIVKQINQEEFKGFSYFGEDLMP


What was measured:
[1] = biological target: T1, PKC-ι in extracts of human cell lines; assay: Western-blot competition, cell extracts: PRE at 10X/20X the anti-PKC iota primary antibody concentration competes with that antibody; band densitometry (lower band = PRE bound)
[2] = biological target: T2, PKC-ζ in extracts of human cell lines; assay: Western-blot competition, cell extracts: PRE at 10X/20X the anti-PKC zeta primary antibody concentration competes with that antibody; band densitometry (lower band = PRE bound)
[3] = biological target: T5, PKC-βII, purified isoform (UniProt P05771-2 1-673); assay: purified isoform competition ELISA, summary grade
T5 construct: also called PKC-beta II; beta 2
T5 sequence (P05771 other isoform, or with tags, fused parts or gaps limits assumed): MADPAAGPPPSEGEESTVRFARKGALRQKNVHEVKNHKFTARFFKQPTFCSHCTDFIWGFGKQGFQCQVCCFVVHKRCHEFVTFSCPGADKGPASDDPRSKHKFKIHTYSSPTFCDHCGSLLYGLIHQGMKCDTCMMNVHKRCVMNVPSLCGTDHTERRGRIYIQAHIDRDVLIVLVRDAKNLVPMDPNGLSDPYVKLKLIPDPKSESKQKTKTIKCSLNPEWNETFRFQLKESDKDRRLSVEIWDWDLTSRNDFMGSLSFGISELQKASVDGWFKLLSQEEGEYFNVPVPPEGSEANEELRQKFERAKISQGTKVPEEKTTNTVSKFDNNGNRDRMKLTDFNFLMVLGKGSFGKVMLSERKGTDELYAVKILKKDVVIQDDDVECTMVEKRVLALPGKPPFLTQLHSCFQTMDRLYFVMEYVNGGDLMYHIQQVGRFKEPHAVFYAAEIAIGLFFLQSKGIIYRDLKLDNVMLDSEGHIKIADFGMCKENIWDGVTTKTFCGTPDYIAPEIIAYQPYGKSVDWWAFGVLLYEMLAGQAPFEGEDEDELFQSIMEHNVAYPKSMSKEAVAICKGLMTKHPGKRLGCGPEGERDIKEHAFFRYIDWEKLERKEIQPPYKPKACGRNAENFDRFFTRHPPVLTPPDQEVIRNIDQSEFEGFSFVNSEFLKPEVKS

[4] = biological target: T2, PKC-ζ in extracts of human cell lines; assay: Western-blot competition, cell extracts: PRE at 10X/20X the anti-PKC zeta primary antibody concentration competes with that antibody; band densitometry (lower band = PRE bound); remark: listed apart in the source
[5] = biological target: T1, PKC-ι in extracts of human cell lines; assay: Western-blot competition, cell extracts: PRE at 10X/20X the anti-PKC iota primary antibody concentration competes with that antibody; band densitometry (lower band = PRE bound); remark: listed apart in the source
[6] = biological target: T3, PKC-ε; assay: cell-based or functional assay
[7] = biological target: PKC-βI (UniProt P05771-1 1-671, limits assumed); assay: cell-based or functional assay
Sequence of PKC-βI (P05771 whole entry): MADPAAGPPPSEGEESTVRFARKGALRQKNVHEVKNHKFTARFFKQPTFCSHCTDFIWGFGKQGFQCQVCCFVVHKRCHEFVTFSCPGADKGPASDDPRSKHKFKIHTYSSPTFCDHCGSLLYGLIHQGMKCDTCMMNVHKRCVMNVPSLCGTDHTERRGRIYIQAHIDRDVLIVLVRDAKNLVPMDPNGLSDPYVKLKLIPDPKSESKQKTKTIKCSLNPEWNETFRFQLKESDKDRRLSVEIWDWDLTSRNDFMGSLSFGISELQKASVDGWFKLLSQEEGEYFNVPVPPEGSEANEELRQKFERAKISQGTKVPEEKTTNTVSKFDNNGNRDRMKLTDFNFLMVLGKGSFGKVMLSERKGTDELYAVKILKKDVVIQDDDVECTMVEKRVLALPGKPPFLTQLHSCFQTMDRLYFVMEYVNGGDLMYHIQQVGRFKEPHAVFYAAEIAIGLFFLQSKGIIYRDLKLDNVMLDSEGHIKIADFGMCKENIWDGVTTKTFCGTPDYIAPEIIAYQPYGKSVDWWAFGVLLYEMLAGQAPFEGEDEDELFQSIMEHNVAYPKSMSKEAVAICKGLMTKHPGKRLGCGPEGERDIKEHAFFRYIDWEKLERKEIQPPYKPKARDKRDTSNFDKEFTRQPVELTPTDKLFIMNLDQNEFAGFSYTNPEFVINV

[8] = biological target: PKC-α (UniProt P17252 1-672, limits assumed); assay: cell-based or functional assay
[9] = biological target: T1, PKC-ι in extracts of human cell lines; assay: Western-blot competition, cell extracts: PRE at 10X/20X the anti-PKC iota primary antibody concentration competes with that antibody; band densitometry (lower band = PRE bound); remark: listed apart in the source
[10] = biological target: T4, PKC-ε, purified isoform; assay: competition ELISA on coated purified PKC-ε vs anti-PKC ε antibody; PRE 100 µM
[11] = biological target: T4, PKC-ε, purified isoform; assay: competition ELISA on coated purified PKC-ε vs anti-PKC ε antibody; PRE 200 µM
[12] = biological target: T4, PKC-ε, purified isoform; assay: competition ELISA on coated purified PKC-ε vs anti-PKC ε antibody; PRE 50 µM
[13] = biological target: T2, PKC-ζ in extracts of human cell lines; assay: Western-blot competition, cell extracts: PRE at 10X/20X the anti-PKC zeta primary antibody concentration competes with that antibody; band densitometry (lower band = PRE bound); remark: listed apart in the source

Binder | binding result [3] | % Inhibition of kinase activity (Kinase-Glo), compound at 5.0 µM [6] | % Inhibition of kinase activity (Kinase-Glo), compound at 30.0 µM [6] | % Inhibition of kinase activity (Kinase-Glo), compound at 5.0 µM [7] | % Inhibition of kinase activity (Kinase-Glo), compound at 30.0 µM [7] | % Inhibition of kinase activity (Kinase-Glo), compound at 5.0 µM [8] | % Inhibition of kinase activity (Kinase-Glo), compound at 30.0 µM [8] | also measured
RRKKGGKDFVVKR (also called peptide recognition element 1) [PRE 1] | no binding |  |  |  |  |  |  | binding result [1]: no binding (tested: 20X the primary antibody concentration); binding result [2]: binds
Ac-KDANQLIGISI-NH2 (also called peptide recognition element 6) [PRE 6] | no binding |  |  |  |  |  |  | binding result [4]: no binding (tested: 20X the primary antibody concentration); binding result [5]: no binding (tested: 20X the primary antibody concentration)
Ac-FRRCFRLGGGGGGGAKGIQEVKGGDAQNLIGISI-NH2 [Compound TIM 18 (PRE 3 and PKI 4)] |  | -28% | 1% | 76.3% | 76.1% | 100% | 100% | 
Ac-FRRCFRLGGGGGGGRRKKGGKDFVVKR-NH2 [Compound TIM 20 (PRE 1 and PKI 4)] |  | -9% | -29% | 6.7% | 15.1% | 19.8% | 0% | 
Ac-KDAQNLIGISI-NH2 (also called peptide recognition element 4) [PRE 4] |  |  |  |  |  |  |  | binding result [9]: binds
Ac-RDAQNLIGISI-NH2 (also called peptide recognition element 11) [PRE 11] |  |  |  |  |  |  |  | relative binding capacity [10]: 13%; relative binding capacity [11]: 9.84%; relative binding capacity [12]: 2.25%; binding result [13]: no binding (tested: 20X the primary antibody concentration)
